The target in test [1] is HIV-1 gp41 (HXB2 strain) (HIV-1 HXB2) (UniProt P04578). Kind of test: cell-based or functional assay.
The target of test [2] is HIV-1 gp41 (JRFL strain) (HIV-1 JRFL). Kind of test: cell-based or functional assay.

Take “Fuzeon (from UniProt P04578 638-673) (peptide)”: in test [1], the IC50 (HXB2), pseudovirion entry came to 3.7 nM and the IC50 (HXB2), single-cycle viral infectivity assay was 3.7 nM. Also, the IC50 (JRFL), pseudovirion entry in test [2] stood at 5 nM.

These data come from patent US20100184663A1.
